# Data published in the supplement of paper PMC7125110.
# ± gives the standard error. For some assays here: Variants at the floor of the assay were thinned out.
# B1: glmS ribozyme (parent)
# chain: AUAAAAGCGCCAGAACUACAGAAAUGUAGUUGACGAGGAGGAGGUUUAUCGAAUUUUCGGCGGAUGCCUCCAAA
# Legend:
# Conditions in all cases: with glucosamine-6-phosphate
# glucosamine-6-phosphate [1] = variants of: B1; experiment: kcat; higher = faster cleavage; RNA array
# Method in brief: (§1)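 Using a hybridised Cy3 probe at 37 °C, barcoded ribozyme variants transcribed in situ by E. coli RNA polymerase on sequenced MiSeq chips were monitored across tiles imaged over ~14 h. The flow contained glucosamine-6-phosphate from 40 μM to 10 mM in HEPES/KCl/Mg(OAc)2 buffer. Signals were normalised to baseline and to non-cleaving reference variants before per-tile medians were fit to one- or two-exponential decays to yield kobs. Weighted Michaelis–Menten fits across concentrations gave kcat and KM.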
# glucosamine-6-phosphate [2] = variants of: B1; experiment: KM; higher = weaker cofactor use; RNA array
# Method in brief: as §1
# glucosamine-6-phosphate [3] = variants of: B1; experiment: self-cleavage kobs at 40 uM GlcN6P; higher = faster cleavage; RNA array
# Method in brief: as §1
# glucosamine-6-phosphate [4] = variants of: B1; experiment: self-cleavage kobs at 160 uM GlcN6P; higher = faster cleavage; RNA array
# Method in brief: as §1
# glucosamine-6-phosphate [5] = variants of: B1; experiment: self-cleavage kobs at 640 uM GlcN6P; higher = faster cleavage; RNA array
# Method in brief: as §1
# glucosamine-6-phosphate [6] = variants of: B1; experiment: self-cleavage kobs at 2500 uM GlcN6P; higher = faster cleavage; RNA array
# Method in brief: as §1
# glucosamine-6-phosphate [7] = variants of: B1; experiment: self-cleavage kobs at 10000 uM GlcN6P; higher = faster cleavage; RNA array
# Method in brief: as §1
Variant,kcat (glucosamine-6-phosphate [1]),KM (glucosamine-6-phosphate [2]),self-cleavage kobs at 40 uM GlcN6P (glucosamine-6-phosphate [3]),self-cleavage kobs at 160 uM GlcN6P (glucosamine-6-phosphate [4]),self-cleavage kobs at 640 uM GlcN6P (glucosamine-6-phosphate [5]),self-cleavage kobs at 2500 uM GlcN6P (glucosamine-6-phosphate [6]),self-cleavage kobs at 10000 uM GlcN6P (glucosamine-6-phosphate [7])
C61U C71U,2.55e-05 ± 4.8e-07 s⁻¹,2880 ± 200 µM,< 1e-05 s⁻¹,< 1e-05 s⁻¹,< 1e-05 s⁻¹,–,–
A42U C70U,0.000154 ± 2e-05 s⁻¹,1640 ± 560 µM,–,–,3.64e-05 ± 7.2e-06 s⁻¹,0.000112 ± 1.2e-05 s⁻¹,0.000126 ± 1.2e-05 s⁻¹
C11A A42G,0.000337 ± 5.9e-05 s⁻¹,3420 ± 1100 µM,–,–,4.77e-05 ± 1.4e-05 s⁻¹,0.000184 ± 4.7e-05 s⁻¹,0.000239 ± 5e-05 s⁻¹
A48G C61A,1.07e-05 ± 3.1e-06 s⁻¹,–,–,–,–,–,–
G66C C67A,0.000183 ± 3e-05 s⁻¹,2370 ± 860 µM,–,–,3.04e-05 ± 1.2e-05 s⁻¹,0.000107 ± 1.6e-05 s⁻¹,0.000137 ± 2.5e-05 s⁻¹
A52G U69A,5.52e-05 ± 3e-06 s⁻¹,–,–,–,–,5.1e-05 ± 1.7e-05 s⁻¹,5.51e-05 ± 8.5e-06 s⁻¹
U55C U56G,0.0112 ± 0.0051 s⁻¹,–,0.000172 ± 3.6e-05 s⁻¹,0.000456 ± 6.4e-05 s⁻¹,0.00134 ± 0.00022 s⁻¹,0.00329 ± 0.00056 s⁻¹,0.0103 ± 0.0016 s⁻¹
A6G U56A,0.000242 ± 1.2e-05 s⁻¹,2780 ± 290 µM,–,–,4.69e-05 ± 1.4e-05 s⁻¹,0.000114 ± 2.4e-05 s⁻¹,0.00019 ± 3.6e-05 s⁻¹
U31G G59U,3.05e-05 ± 9.5e-07 s⁻¹,511 ± 160 µM,–,–,–,–,2.88e-05 ± 1e-05 s⁻¹
G32A U55C,0.00196 ± 0.00036 s⁻¹,2790 ± 760 µM,–,9.47e-05 ± 1.6e-05 s⁻¹,0.000403 ± 4.8e-05 s⁻¹,0.00122 ± 0.0002 s⁻¹,0.00143 ± 0.00018 s⁻¹
A12G G13A,6.3e-05 ± 2.4e-06 s⁻¹,3470 ± 390 µM,–,–,–,2.7e-05 ± 9.7e-06 s⁻¹,4.66e-05 ± 7.4e-06 s⁻¹
U57A C58A,4.9e-05 ± 5.6e-06 s⁻¹,–,–,–,–,4.44e-05 ± 1.1e-05 s⁻¹,4.41e-05 ± 9.8e-06 s⁻¹
A15G U55G,0.0139 ± 0.0046 s⁻¹,683 ± 310 µM,0.000914 ± 0.00013 s⁻¹,0.00183 ± 0.00047 s⁻¹,0.00997 ± 0.0026 s⁻¹,0.0187 ± 0.0059 s⁻¹,0.0118 ± 0.0027 s⁻¹
A15G U30C,0.0225 ± 0.0031 s⁻¹,871 ± 170 µM,0.00107 ± 0.00018 s⁻¹,0.00315 ± 0.00047 s⁻¹,0.0102 ± 0.0015 s⁻¹,0.0197 ± 0.005 s⁻¹,0.0186 ± 0.0045 s⁻¹
C10U U56G,3.3e-05 ± 4.5e-06 s⁻¹,–,–,–,–,2.86e-05 ± 8.5e-06 s⁻¹,2.92e-05 ± 6.7e-06 s⁻¹
G40A A64C,6.62e-05 ± 1.1e-05 s⁻¹,–,–,–,–,–,5.19e-05 ± 1.5e-05 s⁻¹
U56G G59U,2.54e-05 ± 5.7e-06 s⁻¹,–,–,< 1e-05 s⁻¹,–,2.9e-05 ± 1.4e-05 s⁻¹,2.16e-05 ± 1e-05 s⁻¹
